Test results taken from patent US20230212549A1 (3B PHARMACEUTICALS, published 2023).
Numbered stars: 1 amine (or outer) side, 2 acyl side, 3 side chain; on linkers, the order of the positions; unused ones are H or OH. Bridge positions count the residues as written; N and C are the ends. Square brackets hold non-standard residues; d marks the D form. Primed or numbered codes have the meaning given here. * marks the point of attachment. tMeBn(DOTA-PP) = 1,3,5-trimethylbenzylidene, two thioethers to Cys, third CH2 bound to one N of piperazine whose other N bears DOTA, O=C(O)CN1CCN(CC(=O)O)CCN(CC(=O)N2CCN(Cc3cc(C[*:1])cc(C[*:2])c3)CC2)CCN(CC(=O)O)CC1; tMeBn(DOTA-PP)″ = trimethylbenzylidene (tMeBn) bridge between the two Cys thiols, whose remaining connection point carries a DOTA chelator via a PP linker; mXylylene = c1cc(C[*:1])cc(C[*:2])c1; Pentanesulfonyl = CCCCCS(=O)(=O)*; Nphe = O=C(O)CNCc1ccccc1; Hexanoyl = CCCCCC(=O)*; Nleu = CC(C)CNCC(=O)O; Nlys = NCCCCNCC(=O)O; Sar = CNCC(=O)O

B1: Hex-[Cys(3MeBn)-Nphe-Pro-Thr-Gln-Phe-Cys]-NH2 (peptide)
peptide: Hexanoyl-C[Nphe]PTQFC-NH2
modifications: linker 1-7 via mXylylene
SMILES: CCCCCC(=O)N[C@H]1CSCc2cccc(c2)CSC[C@@H](C(N)=O)NC(=O)[C@H](Cc2ccccc2)NC(=O)[C@H](CCC(N)=O)NC(=O)[C@H]([C@@H](C)O)NC(=O)[C@@H]2CCCN2C(=O)CN(Cc2ccccc2)C1=O
B2: Hex-[Cys(tMeBn(DOTA-PP))-Pro-Thr-Pro-Phe-Gln-Cys]-Asp-NH2 (peptide)
peptide: Hexanoyl-CPTPFQCD-NH2
modifications: linker 1-7 via tMeBn(DOTA-PP)
SMILES: CCCCCC(=O)N[C@H]1CSCc2cc(cc(CN3CCN(C(=O)CN4CCN(CC(=O)O)CCN(CC(=O)O)CCN(CC(=O)O)CC4)CC3)c2)CSC[C@@H](C(=O)N[C@@H](CC(=O)O)C(N)=O)NC(=O)[C@H](CCC(N)=O)NC(=O)[C@H](Cc2ccccc2)NC(=O)[C@@H]2CCCN2C(=O)[C@H]([C@@H](C)O)NC(=O)[C@@H]2CCCN2C1=O
B3: Hex-[Cys(3MeBn)-Nlys-Pro-Thr-Gln-Phe-Cys]-NH2 (peptide)
peptide: Hexanoyl-C[Nlys]PTQFC-NH2
modifications: linker 1-7 via mXylylene
SMILES: CCCCCC(=O)N[C@H]1CSCc2cccc(c2)CSC[C@@H](C(N)=O)NC(=O)[C@H](Cc2ccccc2)NC(=O)[C@H](CCC(N)=O)NC(=O)[C@H]([C@@H](C)O)NC(=O)[C@@H]2CCCN2C(=O)CN(CCCCN)C1=O
B4: Hex-[Cys(3MeBn)-Nleu-Pro-Thr-Gln-Phe-Cys]-NH2 (peptide)
peptide: Hexanoyl-C[Nleu]PTQFC-NH2
modifications: linker 1-7 via mXylylene
SMILES: CCCCCC(=O)N[C@H]1CSCc2cccc(c2)CSC[C@@H](C(N)=O)NC(=O)[C@H](Cc2ccccc2)NC(=O)[C@H](CCC(N)=O)NC(=O)[C@H]([C@@H](C)O)NC(=O)[C@@H]2CCCN2C(=O)CN(CC(C)C)C1=O
B5: Hex-[Cys(3MeBn)-Pro-Pro-Thr-Glu-Phe-Cys]-Asp-His-Phe-Arg-Asp-NH2 (peptide)
peptide: Hexanoyl-CPPTEFCDHFRD-NH2
modifications: linker 1-7 via mXylylene
SMILES: CCCCCC(=O)N[C@H]1CSCc2cccc(c2)CSC[C@@H](C(=O)N[C@@H](CC(=O)O)C(=O)N[C@@H](Cc2c[nH]cn2)C(=O)N[C@@H](Cc2ccccc2)C(=O)N[C@@H](CCCNC(=N)N)C(=O)N[C@@H](CC(=O)O)C(N)=O)NC(=O)[C@H](Cc2ccccc2)NC(=O)[C@H](CCC(=O)O)NC(=O)[C@H]([C@@H](C)O)NC(=O)[C@@H]2CCCN2C(=O)[C@@H]2CCCN2C1=O
B6: Pentyl-SO2-[Cys(3MeBn)-Pro-Pro-Thr-Gln-Phe-Cys]-Asp-NH2 (peptide)
peptide: Pentanesulfonyl-CPPTQFCD-NH2
modifications: linker 1-7 via mXylylene
SMILES: CCCCCS(=O)(=O)N[C@H]1CSCc2cccc(c2)CSC[C@@H](C(=O)N[C@@H](CC(=O)O)C(N)=O)NC(=O)[C@H](Cc2ccccc2)NC(=O)[C@H](CCC(N)=O)NC(=O)[C@H]([C@@H](C)O)NC(=O)[C@@H]2CCCN2C(=O)[C@@H]2CCCN2C1=O
notes: also called 3BP-3514
B7: Hex-[Cys(tMeBn(LuDOTA-PP))-Pro-Pro-Thr-Gln-Phe-Cys]-Asp-NH2 (peptide)
peptide: Hexanoyl-CPPTQFCD-NH2
modifications: linker 1-7 via tMeBn(LuDOTA-PP); also: Lu complex (LuDOTA)
notes: also called 3BP-3591
B8: Pentyl-SO2-[Cys(tMeBn(DOTA-PP))-Pro-Pro-Thr-Gln-Phe-Cys]-Asp-NH2 (peptide)
peptide: Pentanesulfonyl-CPPTQFCD-NH2
modifications: linker 1-7 via tMeBn(DOTA-PP)″
notes: also called 3BP-3692
B9: Hex-[Cys(tMeBn(InDOTA-PP))-Pro-Pro-Thr-Gln-Phe-Cys]-Asp-NH2 (peptide)
peptide: Hexanoyl-CPPTQFCD-NH2
modifications: linker 1-7 via tMeBn(InDOTA-PP); also: In complex (InDOTA)
notes: also called 3BP-3590
B10: Hex-[Cys(tMeBn(DOTA-AET))-Nmg-Pro-Thr-Gln-Phe-Cys]-OH (peptide)
peptide: Hexanoyl-C[Sar]PTQFC-OH
modifications: linker 1-7 via tMeBn(DOTA-AET)
notes: also called 3BP-3678
B11: Hex-[Cys(tMeBn(DOTA-AET))-Pro-Pro-Thr-Gln-Phe-Cys]-Asp-OH (peptide)
peptide: Hexanoyl-CPPTQFCD-OH
modifications: linker 1-7 via tMeBn(DOTA-AET)
notes: also called 3BP-3665
B12: Hex-[Cys(tMeBn(DOTA-AET))-Pro-Pro-Thr-Gln-Phe-AET] (peptide)
peptide: CPPTQFX
modifications: not fully specified; N-term Hex; X7 = AET; Cys1/AET7 thioether-cyclised via tMeBn(DOTA-AET)
notes: also called 3BP-3654
B13: Hex-[Cys(tMeBn(DOTA-AET))-Pro-Pro-Thr-Gln-Phe-Cys]-asp-NH2 (peptide)
peptide: CPPTQFCD
modifications: N-term Hex; Cys1/Cys7 thioether-cyclised via tMeBn(DOTA-AET); D-Asp at 8; C-term amide
notes: also called 3BP-3681

Target: T1, Recombinant human FAP (R&D systems, #3715-SE) (human, UniProt Q12884 26-760)
T1 sequence (Q12884 26-760 limits assumed): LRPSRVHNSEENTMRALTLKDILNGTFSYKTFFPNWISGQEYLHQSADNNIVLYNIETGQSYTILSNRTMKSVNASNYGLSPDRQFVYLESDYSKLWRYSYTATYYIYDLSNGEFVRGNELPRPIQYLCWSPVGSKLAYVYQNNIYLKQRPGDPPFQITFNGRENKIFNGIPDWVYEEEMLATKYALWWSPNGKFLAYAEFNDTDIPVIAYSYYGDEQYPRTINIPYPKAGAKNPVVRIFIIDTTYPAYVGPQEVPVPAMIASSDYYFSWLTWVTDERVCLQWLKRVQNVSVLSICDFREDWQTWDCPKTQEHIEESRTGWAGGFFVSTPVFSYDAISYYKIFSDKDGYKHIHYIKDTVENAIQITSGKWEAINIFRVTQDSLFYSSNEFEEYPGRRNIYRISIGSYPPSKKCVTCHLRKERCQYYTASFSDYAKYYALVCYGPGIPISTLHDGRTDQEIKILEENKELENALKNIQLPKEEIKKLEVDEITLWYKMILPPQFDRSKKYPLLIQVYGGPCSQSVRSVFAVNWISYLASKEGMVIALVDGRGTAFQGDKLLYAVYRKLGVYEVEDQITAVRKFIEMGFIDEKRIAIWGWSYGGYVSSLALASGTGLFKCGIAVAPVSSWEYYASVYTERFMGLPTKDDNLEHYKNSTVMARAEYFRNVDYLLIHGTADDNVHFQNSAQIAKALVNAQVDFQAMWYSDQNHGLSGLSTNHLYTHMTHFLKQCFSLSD
Assay: cell-based or functional assay

pIC50 Category (Activity) [pIC50]	Binder
≤ 6	B1
≤ 6	B2
≤ 6	B3
≤ 6	B4

Target: T1, Recombinant human FAP (R&D systems, …)
Assay: SPR (Biacore T200), FAP captured on anti-FAP antibody, single cycle kinetics

pKD Category [pKD]	Binder
> 8	B5
> 8	B6
> 8	B7
> 8	B8
> 8	B9
> 8	B10
> 8	B11
> 8	B12
> 8	B13
